Target: β2-adrenergic receptor (β2AR) (human) (UniProt P07550)

cAMP formation (HitHunter cAMP assay) in β2AR-transfected HEK-293 cells, P4 alone 10^-9 to 10^-4 M, no isoproterenol: EC50: 210 nM | cAMP formation (HitHunter cAMP assay) in β2AR-transfected HEK-293 cells, P4 alone 10^-9 to 10^-4 M, no isoproterenol: increase in cAMP as percent of the maximum response to isoproterenol: < 20% | decrease of isoproterenol potency in the cAMP assay by 50 µM P4 in β2AR-transfected HEK-293 cells (pair interfered with: agonist-activated β2AR and endogenous Gαs): < 20 fold | reduction of the maximal isoproterenol-induced cAMP level by 50 µM P4 in β2AR-transfected HEK-293 cells (pair interfered with: agonist-activated β2AR and endogenous Gαs): 40%
Binder: AITTGGNTYYANSVKGRFTISRDNA [CDR2-NDP P4 (25-amino-acid nanobody-derived peptide from the CDR2 of Nb71)]

From paper PMC11048008
